Experimental data: patent US20260258115A1 (MAPP BIOPHARMACEUTICAL, published 2026)

These binders were tested against RSV F on RSV-A2 virus (Respiratory syncytial virus (RSV-A2)) (assay: cell-based or functional assay).

Binder | Neutralization IC50 (RSV subtype A) [µg/mL]
ADI-41279 (antibody, V domains shown) VH: QVQLVQSGAEVKKAGETLKISCRGPAHTFTSFWIGWVRQTPGKGLEWMGNIYPGDTDTTYSPSFRGQVTISADKSISTAYLQWNSLKASDTAIYYCATRVRHGYSSSGSFESWGQGTMVTVSS VL: QSVVTQPPSVSGAPGQRITISCTGSNSNTGAGYDVHWYQQLPGAAPKLLIFANNNRPSGVPDRFSGSKSGTSASLAITGLQAEDEADYYCQSYDNSLSAYVFGTGTKLTVL | > 25
ADI-41283 (antibody, V domains shown) VH: QVTLKESGPTLVKPTQTLTLTCTFSGFSLSTFGVAVGWIRQPPGKALEWLALIYWDDDKRYSPSLKSRLTITKDISKNQVVLTMTNMDPVDTATYYCAHRLRSLTARGVFDIWGQGTTVTVSS VL: DIRLTQSPSSLSASVGDRVTITCRASQSINNFLNWYQQRPGKAPTLLIYSASSLQSGVPSRFSGSGSGTDFTLTISSLQPEDFATYFCQQTDSFPWTFGQGTKVEIK | > 25
ADI-41267 (antibody, V domains shown) VH: QVQLVQSGPGLVKPSGTLSLTCAVSGGSISTTHWWSWVRQPPGKGLEWIGEIYHSGSTNYNPSLKSRVTISVDKSRSQFSLKLTSVTAADTAVYYCARGDPLCSGGICYSGYFDYWGQGTLVTVSS VL: SYVLTQPPSVSVSPGQTATITCSGDKLGDQYACWYQQKSGQSPVLVIYRDNKRPSGIPERFSGSNSGNTATLTISETQAMDEADYYCQAWGSSSVVFGGGTKVTVL | > 25
ADI-41278 (antibody, V domains shown) VH: EVQLVESGPALVKPTQTLTLTCTFSGFSLSTKRMGVSWIRQPPGKALEWLARIDWDDDKFYSTSLKTRLTISKDTSKNQVVLTLANMDPVDTATYFCARTTVYASGGYYLYYLDYWGQGTLVTVSS VL: DIVMTQTPSSLSASVGDRVTLTCRASQRIASYVNWYHQKPGKAPNLLIYAASNLQSGVPSRFSGSGSGTDFTLTISSLQPEDFATYYCQQSYSTPLTFGQGTKLEIK | > 25
ADI-41270 (antibody, V domains shown) VH: EVQLVESGGGVVQPGQSLRLSCAASGFTFSSFAMHWVRQAPGKGLEWVAVISYDGSNKYYADSVKGRFTISRDNSKNTLSLQVNSLRAEDTAVYYCARVSAEGSMGRFSDFNYWGLGTLVTVSS VL: QSALTQPASVSGSPGQSITISCTGTSSDVGSYNLVSWYQQHPGKAPKLMIYEVRKRPSGVSNRFSGSKSGNTASLTISGLQAEDEADYYCCSYAGSDTYVFGTGTKLTVL | > 25
ADI-41282 (antibody, V domains shown) VH: QVQLVQSGGGVVQPGRSLRLSCAASGFMFTIYSMHWVRQAPGKGLEWVAVISNDGVNKYYSDSVKGRFTISRDNSKNTLYLQMNNLRAEDTAVYYCASDIVVLVTATDYWGQGTLVTVSS VL: ETTLTQSPVTLSLSPGERATLSCRTSQSFSSPLLAWYQQKPGQAPRLLIYGASNRATGIPDRFSGSGSGTDFTLTISRLEPVDFAVYYCQQYGSSPYTFGQGTKLEIK | > 25
ADI-41281 (antibody, V domains shown) VH: QVQLVQSGAEVKKPGASVKVSCKASGYSFTNHGIHWVRQAPGQRLEWMGWINVANGFTAYSQNLQGRVTFTRDTSASTAYLELTSLRSEDTAVYHCARDESYCSAGYCYLYFDYWGQGTTVTVSS VL: DIQVTQSPSSLSASVGDRVTITCRASQNIITYVNWYQQKPGKAPELLIFGASSVQSGVPSRFSGSGSGTDFTLTISSLRPDDFATYYCQQSYSNPRTFGGGTKVEIK | > 25
ADI-41285 (antibody, V domains shown) VH: QVQLVQSGAEVKKPGSSVKVSCKASGGTFSYYAISWVRQAPGQGLEWMGGIIPILGTVKNAQKFQGRVTITADKITSIAYMELSSLRHEDTAVYYCARDYYDSSGYYYNGYGMDVWGQGTTVTVSS VL: QSVLIQPPSASGTPGQRVTISCSGSSSNIGSNYVYWYQQLPGTAPKLLIYRNDQRPSGVPDRFSGSKSGTSASLAISGLRSGDEADYYCAAWDDSLGGPIWVFGGGTKLTVL | > 25
ADI-41291 (antibody, V domains shown) VH: QVQLQQWGAGLLKPSETLSLTCVVYGESFSDSGYYWTWIRQPPEKGLEWIGEINHGGSTSYNPSLKSRVTISVDTSENQFSLKVTSVTGADTAVYYCARLRLGCSGGSCYSRFDYWGQGTLVTVSS VL: DIQLTQSPSSLSASVGDRVTITCRASQSINSYLNWYQQKPGKAPVLLIHAASSLQGGVPSRFSGSGSGTDFTLTISSLQPEDFATYYCQQSYNTRWTFGHGTKVDIK | > 25
ADI-41287 (antibody, V domains shown) VH: EVQLVESGGGLVQPGRSLRLSCAASGFTFDDYAMHWVRQAPGKGLEWVSSISWHSADIGYAASVEGRFTISRDNAKNSLFLQMNSLRPEDTALYYCAKEIVSTSWYSGYFQDWGQGTLVTVSS VL: QPVLTQPRSVSGSPGQSVTISCTGTSSDVGDYNYVSWYQQHPGKAPKLMIYDVSKRPSGVPDRFSGSKSGNTASLTISGLQGEDEADYYCCSYAGRHTFVFGTATKVTVL | 5.85
ADI-41275 (antibody, V domains shown) VH: EVQLVESGGGLVKPGGSLRLSCAASGFMFSTYSMNWVRQAPGKGLEWVSFITGSSSDKYYAHSVKGRFTISRDNAKRTLYLQLNSLRAEDTAVYYCARFRGLYCDGDCSSRGNTYYNYYGMDVWGQGTTVTVSS VL: EIVMTQSPLSLSVIPGEPASISCRSSKSLLHSNGYTYLDWYLQKPGQSPQLLIHLGSNRASGVPDRFSGSGSGTDFTLKISRVEAEDVGVFYCMQALQAPPTFGPGTKVEIK | > 25
ADI-41277 (antibody, V domains shown) VH: QVQLQESGPGLVKPSGTLSLTCAVSGGSITGRNWWSWVRQPPGKELERIGEIYHGGSTEYNPSLKGRVTISVDKSKNQFSLRLNSVTAADTAVYYCARVAHYDSNGYYIGYFDLWGRGTLVTVSS VL: EIVLTQSPPSLSASVGDRVTITCRASQSISIYLNWYQQKPGKAPKLLIFAASSLQSGVPLRFSGSGSGTDFTLTISSLQPEDFATYYCHQSYSAPWTFGQGTKVDIK | > 25
ADI-41288 (antibody, V domains shown) VH: EVQLVESGGGLVQPGGSLRLSCAASGFTFSSYAMSWVRQAAGKGLEWVSAISGSGDDTFYADSVKDRFIISRDSSKRKVYLQMNSLRVEDTAVYYCAKTDIMVTFGGVVVDAYYFDHWGQGTLVTVSS VL: ETTLTQSPGTLSLSPGERATLSCRASQFVFRSYLAWYQQRPGQPPRLLIYGASSRATGIPDRFSGRGSGTEFTLTISRLEPEDFAMYYCQHYDSSPPGTFGGGTKVEIK | > 25
ADI-41289 (antibody, V domains shown) VH: EVQLVQSGAEVKKPGESLKISCKGSGYSFSSFWIGWVRQMPGKGLEWMGIIYPGDSDTRYSPSFQGQVTISADQSIRTAYLQWNSLKASDTGLYYCAKGGLGDVEMATIAVWGQGTLVTVSS VL: QSVLIQPASVSGSPGQSITIPCTGTSSDVGSYNLVSWYQHHPGKAPKLIISEGSKRPLGVSNRFSGSKSGNTASLTISGLQAEDEADYYCSSYVRSRTFNYVFGTGTKLTVL | > 25
ADI-41286 (antibody, V domains shown) VH: QVQLVQSGAEVKKPGASVKVSCKASGYTFISYGISWVRQAPGQGPEWMGWISTHNGNTNYAQKLQGRVTMTTDTSTSTAYMELRSLRSDDTAVYYCARDERSIAVEVYLGSTFDIWGQGTMVTVSS VL: DIQVTQSPSSVSASVGDRVTITCRASQGISSWLAWYQQKPGKAPKLLIYAASTLQSGVPSRFSGSGSGTDFTLTISRLQPEDFATYYCQQANIFGVTFGPGTKVDIK | > 25
ADI-41271 (antibody, V domains shown) VH: QVQLQESGPGLVKPSQTLSLTCAISGDSVSSNNAAWNWIRQSPSRGLEWLGRTYYRSKWYNDYAVSVKSRITINPDTSKNQLSLQLNSVTPEDTAVYYCARAGVRQWLVRGMDAFDIWGQGTMVTVSS VL: not shown | > 25
ADI-41280 (antibody, V domains shown) VH: QVQLVESGPGLVKPSETLALTCTVSGGSLSTYYWSWIRQPPGKGLEWIGYIYYSGTTYYNPSLKSRVTISEDRSKNQFSLKLTSVTAADTAVYYCARHGPKTEFWSAQYYLELWGRGTLVTVSS VL: EIVLTQSPGTLSLSPGERATLSCRASQSVSSDYLAWYQQKPGQAPSLLIYGVSTRATGIPDRISGSGSGTDFTLTISRLEPEDFAVYYCHQYGTSPWTFGQGTKVEIK | > 25
ADI-41273 (antibody, V domains shown) VH: EVQLLESGGDLVRPGGSLRLSCTASGFSFSSSEMNWVRQAPGKGLEWVASINSGGDDIYYADSVKGRFTISRDNAKNSLSLQMDSLRAEDTALYYCARSRSGYSSGWSRFFGNWGQGTLVTVSS VL: QSALTQPRSVSGSPGQSVTISCTGTISDIGAYNYVSWYQQHPGKAPKVMIYDVSKRPSGVPDRFSGSKSGFTASLTISGLQAEDEADYYCCSYAGRWVFGGGTKLTVL | > 25
ADI-41276 (antibody, V domains shown) VH: EVQLVESGGGLVQPGRSLRLSCRASGFTFRNYAMSWVRQAPGKGLEWVGFIRGKGYGGTTEYAASVKGRFTISSDDSRSIAYLQMNSLKTEDTAVYYCTRVREDGVIAVAEYYFDYWGQGTLVTVSS VL: not shown | > 25
ADI-41274 (antibody, V domains shown) VH: EVQLVESGGGLVKPGGSLRLSCAASGFSFSSYAMNWVRQAPGKGLQWVSSISAGSSYIDYADSVKGRFTISRDNAENSLFLQMNSLRVEDTAVYYCARVGSYTHGYEFDYWGQGTLVTVSS VL: QPVLTQPPSVSGAPGQRVTISCTGSNSNIGAGYDVHWYQQLPGTAPKLLIYASTIRPSGVPDRFSGSKSGTSASLAITGLQAEDEADYYCQSYDRNLSVVFGGGTKVTVL | 0.109
ADI-41284 (antibody, V domains shown) VH: QVQLVQSGGGLVKPGGSLRLSCAASGFTFSNAWMSWVRQAPGKGLEWVGRIKSEVDGGTADYAANVKGRLTISRDDSKNMMYLQMNSLKTEDTAVYYCTTDPGVGWIFGEVKLFRTDPEYWGQGTLVTVSS VL: QSVLTQPPSVSAAPGQKVTISCSGSSSNIGNHYVSWYQQLPGTSPKLLIYDNNKRPSGIPDRFSGSKSGTSATLGITGLQPGDEADYYCGTWDSSLSAVRVFGGGTKVTVL | > 25
ADI-41268 (antibody, V domains shown) VH: EVQLVESGGGLVKPGGSLRLSCVASGFGFTSYSMNWVRQAPGKGLEWVSSISASSTYIHYADSVKGRFTISRDNARNSLYLQMISLRADDTAVYYCSRDGPTYGSGVHVWGQGTMVTVSS VL: QSALIQPVSVSGSPGQSITISCTGTRSDVGGYNYVSWYQQHPGKAPKLMIYEVRNRPSGVSDRFSGSKSGNTASLTISGLQAEDEGDYYCSSYTSSDTLFYVFGSGTKLTVL | 0.177
